In data set [1] the target is T1, vitamin B12 ABC transporter BtuCD, reconstituted in peptidiscs (E. coli, UniProt P06609 1-326; P06611 1-249).
T1 chain 1: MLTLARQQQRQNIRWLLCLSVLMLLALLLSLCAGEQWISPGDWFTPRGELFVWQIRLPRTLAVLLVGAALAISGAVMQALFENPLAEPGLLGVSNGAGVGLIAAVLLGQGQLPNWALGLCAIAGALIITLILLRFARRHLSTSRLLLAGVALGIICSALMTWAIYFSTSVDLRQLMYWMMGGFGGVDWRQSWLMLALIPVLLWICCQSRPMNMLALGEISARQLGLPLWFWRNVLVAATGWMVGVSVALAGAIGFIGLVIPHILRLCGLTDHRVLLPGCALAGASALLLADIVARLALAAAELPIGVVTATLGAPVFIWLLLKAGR
T1 chain 2: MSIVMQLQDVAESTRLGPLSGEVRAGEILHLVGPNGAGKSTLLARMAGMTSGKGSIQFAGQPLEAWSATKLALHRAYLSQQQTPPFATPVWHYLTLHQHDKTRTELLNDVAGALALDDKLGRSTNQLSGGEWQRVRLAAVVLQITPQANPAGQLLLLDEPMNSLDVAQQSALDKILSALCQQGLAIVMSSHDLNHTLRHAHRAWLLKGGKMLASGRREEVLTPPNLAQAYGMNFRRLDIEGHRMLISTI
Briefly: without ATP.

Data set [2] concerns the target T1, vitamin B12 ABC transporter BtuCD, …. Put plainly: 1 mM ATP.
Data set [3] deals with the molecule itself. Put plainly: mass photometry; SEC fractions of His-tagged membrane proteins purified on Ni-NTA and reconstituted into peptidiscs, diluted 100-fold in PBS to ~5-20 nM; main species: subunits together in the native oligomer or complex in one disc.
Data set [4] deals with the molecule itself. Put plainly: mass photometry.

Data on three molecules can be found in PMC10831248, “Characterization of membrane protein interactions by peptidisc-mediated mass photometry” (iScience, 2024).

B1: periplasmic B12 binding protein BtuF (natural protein)
chain: APRVITLSPANTELAFAAGITPVGVSSYSDYPPQAQKIEQVSTWQGMNLERIVALKPDLVIAWRGGNAERQVDQLASLGIKVMWVDATSIEQIANALRQLAPWSPQPDKAEQAAQSLLDQYAQLKAQYADKPKKRVFLQFGINPPFTSGKESIQNQVLEVCGGENIFKDSRVPWPQVSREQVLARSPQAIVITGGPDQIPKIKQYWGEQLKIPVIPLTSDWFERASPRIILAAQQLCNALSQVD
In the case of B1, the figures for the Kd in data set [1] and in data set [2] were 48 nM and 25 nM, respectively.

B2: trimeric drug efflux pump AcrB (natural protein, E. coli, UniProt P31224 1-1049, looked up)
chain: MPNFFIDRPIFAWVIAIIIMLAGGLAILKLPVAQYPTIAPPAVTISASYPGADAKTVQDTVTQVIEQNMNGIDNLMYMSSNSDSTGTVQITLTFESGTDADIAQVQVQNKLQLAMPLLPQEVQQQGVSVEKSSSSFLMVVGVINTDGTMTQEDISDYVAANMKDAISRTSGVGDVQLFGSQYAMRIWMNPNELNKFQLTPVDVITAIKAQNAQVAAGQLGGTPPVKGQQLNASIIAQTRLTSTEEFGKILLKVNQDGSRVLLRDVAKIELGGENYDIIAEFNGQPASGLGIKLATGANALDTAAAIRAELAKMEPFFPSGLKIVYPYDTTPFVKISIHEVVKTLVEAIILVFLVMYLFLQNFRATLIPTIAVPVVLLGTFAVLAAFGFSINTLTMFGMVLAIGLLVDDAIVVVENVERVMAEEGLPPKEATRKSMGQIQGALVGIAMVLSAVFVPMAFFGGSTGAIYRQFSITIVSAMALSVLVALILTPALCATMLKPIAKGDHGEGKKGFFGWFNRMFEKSTHHYTDSVGGILRSTGRYLVLYLIIVVGMAYLFVRLPSSFLPDEDQGVFMTMVQLPAGATQERTQKVLNEVTHYYLTKEKNNVESVFAVNGFGFAGRGQNTGIAFVSLKDWADRPGEENKVEAITMRATRAFSQIKDAMVFAFNLPAIVELGTATGFDFELIDQAGLGHEKLTQARNQLLAEAAKHPDMLTSVRPNGLEDTPQFKIDIDQEKAQALGVSINDINTTLGAAWGGSYVNDFIDRGRVKKVYVMSEAKYRMLPDDIGDWYVRAADGQMVPFSAFSSSRWEYGSPRLERYNGLPSMEILGQAAPGKSTGEAMELMEQLASKLPTGVGYDWTGMSYQERLSGNQAPSLYAISLIVVFLCLAALYESWSIPFSVMLVVPLGVIGALLAATFRGLTNDVYFQVGLLTTIGLSAKNAILIVEFAKDLMDKEGKGLIEATLDAVRMRLRPILMTSLAFILGVMPLVISTGAGSGAQNAVGTGVMGGMVTATVLAIFFVPVFFVVVRRRFSRKNEDIEHSHTVDHH
notes: AcrB, multidrug efflux pump subunit, E. coli; It is carried in a peptidisc; source: E. coli C43(DE3), purified (DDM extraction, Ni-NTA, reconstituted into peptidiscs, SEC); not shown: His6, C-terminal, kept
For B2, in data set [3], the binding result is recorded as “binds”.

B3: mechanosensitive channel of large conductance (MscL) from Mycobacterium tuberculosis (natural protein)
chain: MLKGFKEFLARGNIVDLAVAVVIGTAFTALVTKFTDSIITPLINRIGVNAQSDVGILRIGIGGGQTIDLNVLLSAAINFFLIAFAVYFLVVLPYNTLRKKGEVEQPGDTQVVLLTEIRDLLAQTNGDSPGRHGGRGTPSPTDGPRASTESQ
notes: MscL, large-conductance mechanosensitive channel, Mycobacterium tuberculosis; also called M. Tb MscL; not shown: His6, C-terminal, kept
For B3, the binding result in data set [4] was “binds”.
